Source: patent US20180155451A1 (published 2018)

B1: GpH7-A5/GpH7-B3 variant E269_02A/GpL16-k0 (antibody, human IgG1, kappa)
heavy 1: not shown
heavy 2: not shown
light: DIVMTQSPLSLPVTPGEPASISCQASESLVHSNRNTYLHWYLQKPGQSPQLLIYKVSNRFSGVPDRFSGSGSGTDFTLKISRVEAEDVGVYYCSQNTHVPPTFGQGTKVEIERTVAAPSVFIFPPSDEQLKSGTASVVCLLNNFYPREAKVQWKVDNALQSGNSQESVTEQDSKDSTYSLSSTLTLSKADYEKHKVYACEVTHQGLSSPVTKSFNRGEC
notes: heterodimerized; also called He Ab E269_02A
B2: GpH7-A5/GpH7-B3 variant E333_08L/GpL16-k0 (antibody, human IgG1, kappa)
heavy 1: not shown
heavy 2: not shown
light: DIVMTQSPLSLPVTPGEPASISCQASESLVHSNRNTYLHWYLQKPGQSPQLLIYKVSNRFSGVPDRFSGSGSGTDFTLKISRVEAEDVGVYYCSQNTHVPPTFGQGTKVEIERTVAAPSVFIFPPSDEQLKSGTASVVCLLNNFYPREAKVQWKVDNALQSGNSQESVTEQDSKDSTYSLSSTLTLSKADYEKHKVYACEVTHQGLSSPVTKSFNRGEC
notes: heterodimerized; also called He Ab E333_08L
B3: GpH7-A5/GpH7-B3 variant E269_03V/GpL16-k0 (antibody, human IgG1, kappa)
heavy 1: not shown
heavy 2: not shown
light: DIVMTQSPLSLPVTPGEPASISCQASESLVHSNRNTYLHWYLQKPGQSPQLLIYKVSNRFSGVPDRFSGSGSGTDFTLKISRVEAEDVGVYYCSQNTHVPPTFGQGTKVEIERTVAAPSVFIFPPSDEQLKSGTASVVCLLNNFYPREAKVQWKVDNALQSGNSQESVTEQDSKDSTYSLSSTLTLSKADYEKHKVYACEVTHQGLSSPVTKSFNRGEC
notes: heterodimerized; also called He Ab E269_03V
B4: GpH7-A5/GpH7-B3 variant E269_20W/GpL16-k0 (antibody, human IgG1, kappa)
heavy 1: not shown
heavy 2: not shown
light: DIVMTQSPLSLPVTPGEPASISCQASESLVHSNRNTYLHWYLQKPGQSPQLLIYKVSNRFSGVPDRFSGSGSGTDFTLKISRVEAEDVGVYYCSQNTHVPPTFGQGTKVEIERTVAAPSVFIFPPSDEQLKSGTASVVCLLNNFYPREAKVQWKVDNALQSGNSQESVTEQDSKDSTYSLSSTLTLSKADYEKHKVYACEVTHQGLSSPVTKSFNRGEC
notes: heterodimerized; also called He Ab E269_20W
B5: GpH7-A5/GpH7-B3 variant E269_13S/GpL16-k0 (antibody, human IgG1, kappa)
heavy 1: not shown
heavy 2: not shown
light: DIVMTQSPLSLPVTPGEPASISCQASESLVHSNRNTYLHWYLQKPGQSPQLLIYKVSNRFSGVPDRFSGSGSGTDFTLKISRVEAEDVGVYYCSQNTHVPPTFGQGTKVEIERTVAAPSVFIFPPSDEQLKSGTASVVCLLNNFYPREAKVQWKVDNALQSGNSQESVTEQDSKDSTYSLSSTLTLSKADYEKHKVYACEVTHQGLSSPVTKSFNRGEC
notes: heterodimerized; also called He Ab E269_13S
B6: GpH7-A5/GpH7-B3 variant E333_04F/GpL16-k0 (antibody, human IgG1, kappa)
heavy 1: not shown
heavy 2: not shown
light: DIVMTQSPLSLPVTPGEPASISCQASESLVHSNRNTYLHWYLQKPGQSPQLLIYKVSNRFSGVPDRFSGSGSGTDFTLKISRVEAEDVGVYYCSQNTHVPPTFGQGTKVEIERTVAAPSVFIFPPSDEQLKSGTASVVCLLNNFYPREAKVQWKVDNALQSGNSQESVTEQDSKDSTYSLSSTLTLSKADYEKHKVYACEVTHQGLSSPVTKSFNRGEC
notes: heterodimerized; also called He Ab E333_04F
B7: GpH7-A5/GpH7-B3 variant E269_06M/GpL16-k0 (antibody, human IgG1, kappa)
heavy 1: not shown
heavy 2: not shown
light: DIVMTQSPLSLPVTPGEPASISCQASESLVHSNRNTYLHWYLQKPGQSPQLLIYKVSNRFSGVPDRFSGSGSGTDFTLKISRVEAEDVGVYYCSQNTHVPPTFGQGTKVEIERTVAAPSVFIFPPSDEQLKSGTASVVCLLNNFYPREAKVQWKVDNALQSGNSQESVTEQDSKDSTYSLSSTLTLSKADYEKHKVYACEVTHQGLSSPVTKSFNRGEC
notes: heterodimerized; also called He Ab E269_06M
B8: GpH7-A5/GpH7-B3 variant E269_08L/GpL16-k0 (antibody, human IgG1, kappa)
heavy 1: not shown
heavy 2: not shown
light: DIVMTQSPLSLPVTPGEPASISCQASESLVHSNRNTYLHWYLQKPGQSPQLLIYKVSNRFSGVPDRFSGSGSGTDFTLKISRVEAEDVGVYYCSQNTHVPPTFGQGTKVEIERTVAAPSVFIFPPSDEQLKSGTASVVCLLNNFYPREAKVQWKVDNALQSGNSQESVTEQDSKDSTYSLSSTLTLSKADYEKHKVYACEVTHQGLSSPVTKSFNRGEC
notes: heterodimerized; also called He Ab E269_08L
B9: GpH7-A5/GpH7-B3 variant E269_15Y/GpL16-k0 (antibody, human IgG1, kappa)
heavy 1: not shown
heavy 2: not shown
light: DIVMTQSPLSLPVTPGEPASISCQASESLVHSNRNTYLHWYLQKPGQSPQLLIYKVSNRFSGVPDRFSGSGSGTDFTLKISRVEAEDVGVYYCSQNTHVPPTFGQGTKVEIERTVAAPSVFIFPPSDEQLKSGTASVVCLLNNFYPREAKVQWKVDNALQSGNSQESVTEQDSKDSTYSLSSTLTLSKADYEKHKVYACEVTHQGLSSPVTKSFNRGEC
notes: heterodimerized; also called He Ab E269_15Y
B10: GpH7-A5/GpH7-B3 variant E333_03V/GpL16-k0 (antibody, human IgG1, kappa)
heavy 1: not shown
heavy 2: not shown
light: DIVMTQSPLSLPVTPGEPASISCQASESLVHSNRNTYLHWYLQKPGQSPQLLIYKVSNRFSGVPDRFSGSGSGTDFTLKISRVEAEDVGVYYCSQNTHVPPTFGQGTKVEIERTVAAPSVFIFPPSDEQLKSGTASVVCLLNNFYPREAKVQWKVDNALQSGNSQESVTEQDSKDSTYSLSSTLTLSKADYEKHKVYACEVTHQGLSSPVTKSFNRGEC
notes: heterodimerized; also called He Ab E333_03V
B11: GpH7-A5/GpH7-B3 variant E269_07I/GpL16-k0 (antibody, human IgG1, kappa)
heavy 1: not shown
heavy 2: not shown
light: DIVMTQSPLSLPVTPGEPASISCQASESLVHSNRNTYLHWYLQKPGQSPQLLIYKVSNRFSGVPDRFSGSGSGTDFTLKISRVEAEDVGVYYCSQNTHVPPTFGQGTKVEIERTVAAPSVFIFPPSDEQLKSGTASVVCLLNNFYPREAKVQWKVDNALQSGNSQESVTEQDSKDSTYSLSSTLTLSKADYEKHKVYACEVTHQGLSSPVTKSFNRGEC
notes: heterodimerized; also called He Ab E269_07I
B12: GpH7-A5/GpH7-B3 variant E333_07I/GpL16-k0 (antibody, human IgG1, kappa)
heavy 1: not shown
heavy 2: not shown
light: DIVMTQSPLSLPVTPGEPASISCQASESLVHSNRNTYLHWYLQKPGQSPQLLIYKVSNRFSGVPDRFSGSGSGTDFTLKISRVEAEDVGVYYCSQNTHVPPTFGQGTKVEIERTVAAPSVFIFPPSDEQLKSGTASVVCLLNNFYPREAKVQWKVDNALQSGNSQESVTEQDSKDSTYSLSSTLTLSKADYEKHKVYACEVTHQGLSSPVTKSFNRGEC
notes: heterodimerized; also called He Ab E333_07I
B13: GpH7-A5/GpH7-B3 variant E333_06M/GpL16-k0 (antibody, human IgG1, kappa)
heavy 1: not shown
heavy 2: not shown
light: DIVMTQSPLSLPVTPGEPASISCQASESLVHSNRNTYLHWYLQKPGQSPQLLIYKVSNRFSGVPDRFSGSGSGTDFTLKISRVEAEDVGVYYCSQNTHVPPTFGQGTKVEIERTVAAPSVFIFPPSDEQLKSGTASVVCLLNNFYPREAKVQWKVDNALQSGNSQESVTEQDSKDSTYSLSSTLTLSKADYEKHKVYACEVTHQGLSSPVTKSFNRGEC
notes: heterodimerized; also called He Ab E333_06M
B14: GpH7-A5/GpH7-B3 variant E333_02A/GpL16-k0 (antibody, human IgG1, kappa)
heavy 1: not shown
heavy 2: not shown
light: DIVMTQSPLSLPVTPGEPASISCQASESLVHSNRNTYLHWYLQKPGQSPQLLIYKVSNRFSGVPDRFSGSGSGTDFTLKISRVEAEDVGVYYCSQNTHVPPTFGQGTKVEIERTVAAPSVFIFPPSDEQLKSGTASVVCLLNNFYPREAKVQWKVDNALQSGNSQESVTEQDSKDSTYSLSSTLTLSKADYEKHKVYACEVTHQGLSSPVTKSFNRGEC
notes: heterodimerized; also called He Ab E333_02A
B15: GpH7-A5/GpH7-B3 variant E333_05P/GpL16-k0 (antibody, human IgG1, kappa)
heavy 1: not shown
heavy 2: not shown
light: DIVMTQSPLSLPVTPGEPASISCQASESLVHSNRNTYLHWYLQKPGQSPQLLIYKVSNRFSGVPDRFSGSGSGTDFTLKISRVEAEDVGVYYCSQNTHVPPTFGQGTKVEIERTVAAPSVFIFPPSDEQLKSGTASVVCLLNNFYPREAKVQWKVDNALQSGNSQESVTEQDSKDSTYSLSSTLTLSKADYEKHKVYACEVTHQGLSSPVTKSFNRGEC
notes: heterodimerized; also called He Ab E333_05P
B16: GpH7-A5/GpH7-B3 variant E269_09D/GpL16-k0 (antibody, human IgG1, kappa)
heavy 1: not shown
heavy 2: not shown
light: DIVMTQSPLSLPVTPGEPASISCQASESLVHSNRNTYLHWYLQKPGQSPQLLIYKVSNRFSGVPDRFSGSGSGTDFTLKISRVEAEDVGVYYCSQNTHVPPTFGQGTKVEIERTVAAPSVFIFPPSDEQLKSGTASVVCLLNNFYPREAKVQWKVDNALQSGNSQESVTEQDSKDSTYSLSSTLTLSKADYEKHKVYACEVTHQGLSSPVTKSFNRGEC
notes: heterodimerized; also called He Ab E269_09D
B17: GpH7-A5/GpH7-B3 variant E269_18N/GpL16-k0 (antibody, human IgG1, kappa)
heavy 1: not shown
heavy 2: not shown
light: DIVMTQSPLSLPVTPGEPASISCQASESLVHSNRNTYLHWYLQKPGQSPQLLIYKVSNRFSGVPDRFSGSGSGTDFTLKISRVEAEDVGVYYCSQNTHVPPTFGQGTKVEIERTVAAPSVFIFPPSDEQLKSGTASVVCLLNNFYPREAKVQWKVDNALQSGNSQESVTEQDSKDSTYSLSSTLTLSKADYEKHKVYACEVTHQGLSSPVTKSFNRGEC
notes: heterodimerized; also called He Ab E269_18N
B18: GpH7-A5/GpH7-B3 variant E269_14T/GpL16-k0 (antibody, human IgG1, kappa)
heavy 1: not shown
heavy 2: not shown
light: DIVMTQSPLSLPVTPGEPASISCQASESLVHSNRNTYLHWYLQKPGQSPQLLIYKVSNRFSGVPDRFSGSGSGTDFTLKISRVEAEDVGVYYCSQNTHVPPTFGQGTKVEIERTVAAPSVFIFPPSDEQLKSGTASVVCLLNNFYPREAKVQWKVDNALQSGNSQESVTEQDSKDSTYSLSSTLTLSKADYEKHKVYACEVTHQGLSSPVTKSFNRGEC
notes: heterodimerized; also called He Ab E269_14T
B19: GpH7-A5/GpH7-B3 variant E269_05P/GpL16-k0 (antibody, human IgG1, kappa)
heavy 1: not shown
heavy 2: not shown
light: DIVMTQSPLSLPVTPGEPASISCQASESLVHSNRNTYLHWYLQKPGQSPQLLIYKVSNRFSGVPDRFSGSGSGTDFTLKISRVEAEDVGVYYCSQNTHVPPTFGQGTKVEIERTVAAPSVFIFPPSDEQLKSGTASVVCLLNNFYPREAKVQWKVDNALQSGNSQESVTEQDSKDSTYSLSSTLTLSKADYEKHKVYACEVTHQGLSSPVTKSFNRGEC
notes: heterodimerized; also called He Ab E269_05P
B20: GpH7-A5/GpH7-B3 variant E269_19Q/GpL16-k0 (antibody, human IgG1, kappa)
heavy 1: not shown
heavy 2: not shown
light: DIVMTQSPLSLPVTPGEPASISCQASESLVHSNRNTYLHWYLQKPGQSPQLLIYKVSNRFSGVPDRFSGSGSGTDFTLKISRVEAEDVGVYYCSQNTHVPPTFGQGTKVEIERTVAAPSVFIFPPSDEQLKSGTASVVCLLNNFYPREAKVQWKVDNALQSGNSQESVTEQDSKDSTYSLSSTLTLSKADYEKHKVYACEVTHQGLSSPVTKSFNRGEC
notes: heterodimerized; also called He Ab E269_19Q
B21: GpH7-A5/GpH7-B3 variant E333_01G/GpL16-k0 (antibody, human IgG1, kappa)
heavy 1: not shown
heavy 2: not shown
light: DIVMTQSPLSLPVTPGEPASISCQASESLVHSNRNTYLHWYLQKPGQSPQLLIYKVSNRFSGVPDRFSGSGSGTDFTLKISRVEAEDVGVYYCSQNTHVPPTFGQGTKVEIERTVAAPSVFIFPPSDEQLKSGTASVVCLLNNFYPREAKVQWKVDNALQSGNSQESVTEQDSKDSTYSLSSTLTLSKADYEKHKVYACEVTHQGLSSPVTKSFNRGEC
notes: heterodimerized; also called He Ab E333_01G
B22: GpH7-A5/GpH7-B3 variant E269_16H/GpL16-k0 (antibody, human IgG1, kappa)
heavy 1: not shown
heavy 2: not shown
light: DIVMTQSPLSLPVTPGEPASISCQASESLVHSNRNTYLHWYLQKPGQSPQLLIYKVSNRFSGVPDRFSGSGSGTDFTLKISRVEAEDVGVYYCSQNTHVPPTFGQGTKVEIERTVAAPSVFIFPPSDEQLKSGTASVVCLLNNFYPREAKVQWKVDNALQSGNSQESVTEQDSKDSTYSLSSTLTLSKADYEKHKVYACEVTHQGLSSPVTKSFNRGEC
notes: heterodimerized; also called He Ab E269_16H

biological target: T1, FcγRIa (human, UniProt P12314 16-292); assay: SPR; vs GpH7-A5/GpH7-B3/GpL16-k0=100
T1 construct: extracellular domain; also called FcgRI; CD64
T1 sequence (P12314 16-292): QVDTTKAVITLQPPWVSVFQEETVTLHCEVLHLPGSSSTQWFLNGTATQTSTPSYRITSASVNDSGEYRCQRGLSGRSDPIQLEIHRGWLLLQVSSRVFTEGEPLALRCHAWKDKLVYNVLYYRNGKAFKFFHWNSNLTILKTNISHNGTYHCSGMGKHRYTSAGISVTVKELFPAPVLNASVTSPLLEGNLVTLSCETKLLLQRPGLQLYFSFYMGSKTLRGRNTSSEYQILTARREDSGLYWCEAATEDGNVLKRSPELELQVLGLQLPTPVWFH

He/Con_1a, 103 % of control:
B3, B5, B11, B14, B21

He/Con_1a, 107 % of control:
B16

He/Con_1a, 106 % of control:
B9, B18, B22

He/Con_1a, 102 % of control:
B2, B6, B12, B13, B15, B17, B19

He/Con_1a, 105 % of control:
B4, B10, B20

He/Con_1a, 104 % of control:
B1, B7, B8
